Experimental data taken from paper PMC12654924.

Columns and labels:
[1] = biological target: hemagglutinin of the Asiatic toad influenza-like virus, ectodomain (Asiatic toad influenza-like virus); assay: cryo-EM structure
[2] = biological target: hemagglutinin of the spiny eel influenza-like virus, ectodomain (spiny eel influenza-like virus); assay: cryo-EM structure

| Substance | stoichiometry N [1] | stoichiometry N [2] |
| --- | --- | --- |
| hemagglutinin of the Asiatic toad influenza-like virus, ectodomain (domain or fragment) | 3 |  |
| hemagglutinin of the spiny eel influenza-like virus, ectodomain (domain or fragment) |  | 3 |
